Experiments:
[1] = target: AIQ-HLA-A2 complex (… peptide loaded on recombinant human HLA-A2:Ig fusion protein, DimerX I) (human); assay: flow cytometry of CAR-T cells incubated with biotinylated AIQ-HLA-A2, then streptavidin-APC; 82.4% GFP+ APC- (lower right); untransduced T cells: 0.00% in the upper right quadrant
[2] = target: HLA-A2 alone (recombinant human HLA-A2:Ig fusion protein, DimerX I, without added peptide) (human); assay: flow cytometry of CAR-T cells incubated with biotinylated HLA-A2, then streptavidin-APC; 82.9% GFP+ APC- (lower right); untransduced T cells: 0.02% in the upper right quadrant
[3] = target: SLL-HLA-A2 complex (NY-ESO-1 peptide … loaded on recombinant human HLA-A2:Ig fusion protein, DimerX I) (human); assay: flow cytometry of CAR-T cells incubated with biotinylated SLL-HLA-A2, then streptavidin-APC; 82.6% GFP+ APC- (lower right); untransduced T cells: 0.04% in the upper right quadrant

## CD19 CAR expressed on human CD8+ T cells
[1]
  % of cells in the upper right quadrant (GFP+ / streptavidin-APC+): 0.17%
[2]
  % of cells in the upper right quadrant (GFP+ / streptavidin-APC+): 0.13%
[3]
  % of cells in the upper right quadrant (GFP+ / streptavidin-APC+): 0.03%
